Test results as given in paper PMC5716069.
Like-named read-outs stand apart in the source and are kept apart here.

T1: Loqs dsRBD2 (Drosophila melanogaster, UniProt Q9VJY9-4 245-322)
T1 sequence: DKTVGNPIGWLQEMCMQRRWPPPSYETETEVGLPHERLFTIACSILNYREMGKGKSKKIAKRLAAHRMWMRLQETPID

T2: Loqs dsRBD1 (Drosophila melanogaster, UniProt Q9VJY9-4 129-211)
T2 sequence: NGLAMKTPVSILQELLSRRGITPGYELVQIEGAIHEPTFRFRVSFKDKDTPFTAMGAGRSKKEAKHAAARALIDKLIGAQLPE

T3: Loqs-PDΔNC (Drosophila melanogaster, UniProt Q9VJY9-4 129-322)
T3 sequence: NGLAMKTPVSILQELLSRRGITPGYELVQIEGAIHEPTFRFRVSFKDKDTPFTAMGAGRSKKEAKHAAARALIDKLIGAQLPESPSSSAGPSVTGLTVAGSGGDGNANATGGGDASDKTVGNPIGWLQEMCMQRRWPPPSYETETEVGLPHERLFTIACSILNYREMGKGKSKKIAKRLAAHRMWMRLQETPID

T4: Loqs-PD (Drosophila melanogaster, UniProt Q9VJY9-4 1-359)
T4 sequence: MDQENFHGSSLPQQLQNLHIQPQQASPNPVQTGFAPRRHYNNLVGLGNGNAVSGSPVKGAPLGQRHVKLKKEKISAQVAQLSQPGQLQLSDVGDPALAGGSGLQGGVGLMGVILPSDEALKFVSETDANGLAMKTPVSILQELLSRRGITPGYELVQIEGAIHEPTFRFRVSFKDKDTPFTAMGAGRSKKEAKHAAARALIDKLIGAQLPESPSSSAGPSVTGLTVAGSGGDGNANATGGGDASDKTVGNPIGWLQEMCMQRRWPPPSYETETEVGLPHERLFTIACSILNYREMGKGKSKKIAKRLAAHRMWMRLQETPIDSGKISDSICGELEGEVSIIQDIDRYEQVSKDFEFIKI

T5: Loqs-PDΔNC Δ41 (Drosophila melanogaster, UniProt Q9VJY9-4 129-322, del209-249)
T5 sequence: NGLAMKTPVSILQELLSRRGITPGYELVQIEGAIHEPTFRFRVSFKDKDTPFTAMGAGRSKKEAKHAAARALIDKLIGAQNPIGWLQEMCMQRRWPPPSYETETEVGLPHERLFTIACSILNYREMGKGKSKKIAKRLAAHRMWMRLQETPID


Tests used:
Loqs dsRBD2 [1] = molecular target: T1, Loqs dsRBD2; assay: fluorescence anisotropy
Loqs dsRBD1 [2] = molecular target: T2, Loqs dsRBD1; assay: fluorescence anisotropy
Loqs-PDΔNC [3] = molecular target: T3, Loqs-PDΔNC; assay: fluorescence anisotropy
Loqs-PD [4] = molecular target: T4, Loqs-PD; assay: fluorescence anisotropy
Loqs dsRBD2 [5] = molecular target: T1, Loqs dsRBD2; assay: NMR titration
Loqs dsRBD1 [6] = molecular target: T2, Loqs dsRBD1; assay: NMR titration
Loqs-PDΔNC [7] = molecular target: T3, Loqs-PDΔNC; assay: NMR titration
Loqs-PDΔNC Δ41 = molecular target: T5, Loqs-PDΔNC Δ41; assay: NMR titration
Loqs-PDΔNC [8] = molecular target: T3, Loqs-PDΔNC; assay: NMR PRE
Loqs-PDΔNC [9] = molecular target: T3, Loqs-PDΔNC; assay: 4-thioU UV cross-linking
Loqs-PD [10] = molecular target: T4, Loqs-PD; assay: 4-thioU UV cross-linking
Dcr-2;Loqs-PD [11] = molecular target: T6, Dcr-2;Loqs-PD (Drosophila melanogaster;Drosophila …, UniProt A1ZAW0;Q9VJY9-4 1-1722;1-359, |); assay: 4-thioU UV cross-linking
Loqs dsRBD2 [12] = molecular target: T1, Loqs dsRBD2; assay: 4-thioU UV cross-linking
Loqs dsRBD1 [13] = molecular target: T2, Loqs dsRBD1; assay: 4-thioU UV cross-linking
Dcr-2 = Dcr-2 (Drosophila melanogaster, UniProt A1ZAW0 1-1722); assay: 4-thioU UV cross-linking
Loqs dsRBD2 [14] = molecular target: T1, Loqs dsRBD2; assay: fluorescence anisotropy and EMSA
Loqs-PDΔNC [15] = molecular target: T3, Loqs-PDΔNC; assay: fluorescence anisotropy and EMSA
Loqs-PDΔNC [16] = molecular target: T3, Loqs-PDΔNC; assay: NMR PRE; remark: listed apart in the source
Loqs-PDΔNC [17] = molecular target: T3, Loqs-PDΔNC; assay: NMR
Dcr-2;Loqs-PD [18] = molecular target: T6, Dcr-2;Loqs-PD; assay: 4-thioU UV cross-linking; remark: listed apart in the source

T6 sequence (A1ZAW0 whole entry, one chain of several): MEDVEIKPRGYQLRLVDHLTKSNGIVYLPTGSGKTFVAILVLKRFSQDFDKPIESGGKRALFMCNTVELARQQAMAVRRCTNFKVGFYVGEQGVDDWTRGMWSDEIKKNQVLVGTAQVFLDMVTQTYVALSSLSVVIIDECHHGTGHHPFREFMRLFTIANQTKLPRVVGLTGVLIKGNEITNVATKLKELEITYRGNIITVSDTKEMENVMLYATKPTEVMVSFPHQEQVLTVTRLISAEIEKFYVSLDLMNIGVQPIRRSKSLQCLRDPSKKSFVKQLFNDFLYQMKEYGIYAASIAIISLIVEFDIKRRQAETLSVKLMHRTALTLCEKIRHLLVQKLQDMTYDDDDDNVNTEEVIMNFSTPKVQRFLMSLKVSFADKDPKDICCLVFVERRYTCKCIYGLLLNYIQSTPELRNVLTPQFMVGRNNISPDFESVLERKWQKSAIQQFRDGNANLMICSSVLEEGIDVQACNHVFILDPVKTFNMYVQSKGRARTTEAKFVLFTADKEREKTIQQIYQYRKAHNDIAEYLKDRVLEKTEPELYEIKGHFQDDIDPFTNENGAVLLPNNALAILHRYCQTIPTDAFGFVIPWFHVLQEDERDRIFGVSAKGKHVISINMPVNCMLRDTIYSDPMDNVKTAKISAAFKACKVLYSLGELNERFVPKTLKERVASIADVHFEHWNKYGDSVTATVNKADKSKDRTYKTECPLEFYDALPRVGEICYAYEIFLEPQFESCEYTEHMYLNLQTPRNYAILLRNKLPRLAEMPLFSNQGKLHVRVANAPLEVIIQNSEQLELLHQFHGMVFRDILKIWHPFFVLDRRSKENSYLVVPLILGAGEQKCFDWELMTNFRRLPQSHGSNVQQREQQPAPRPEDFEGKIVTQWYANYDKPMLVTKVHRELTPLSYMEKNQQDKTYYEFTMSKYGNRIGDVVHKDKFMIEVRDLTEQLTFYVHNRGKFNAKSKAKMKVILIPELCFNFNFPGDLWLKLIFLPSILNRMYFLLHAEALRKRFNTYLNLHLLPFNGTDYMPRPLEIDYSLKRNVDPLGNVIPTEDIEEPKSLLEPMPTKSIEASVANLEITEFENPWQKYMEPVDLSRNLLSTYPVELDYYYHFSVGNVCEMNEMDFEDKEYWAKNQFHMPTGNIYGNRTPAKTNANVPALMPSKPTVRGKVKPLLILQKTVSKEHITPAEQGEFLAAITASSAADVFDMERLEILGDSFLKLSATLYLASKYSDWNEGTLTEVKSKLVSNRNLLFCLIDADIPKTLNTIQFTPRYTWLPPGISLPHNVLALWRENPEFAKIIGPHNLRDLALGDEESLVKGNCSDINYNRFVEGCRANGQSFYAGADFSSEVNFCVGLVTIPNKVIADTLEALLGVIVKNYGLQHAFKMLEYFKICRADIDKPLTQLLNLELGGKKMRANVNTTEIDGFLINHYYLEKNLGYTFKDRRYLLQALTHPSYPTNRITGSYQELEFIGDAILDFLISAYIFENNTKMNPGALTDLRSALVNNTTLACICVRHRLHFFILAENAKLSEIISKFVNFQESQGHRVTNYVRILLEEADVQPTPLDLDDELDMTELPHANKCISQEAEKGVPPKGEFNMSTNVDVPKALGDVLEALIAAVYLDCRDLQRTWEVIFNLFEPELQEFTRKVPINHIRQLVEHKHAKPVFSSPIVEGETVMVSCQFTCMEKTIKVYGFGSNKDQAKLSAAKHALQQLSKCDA
Dcr-2, sequence (A1ZAW0 whole entry): as the sequence (A1ZAW0 whole entry, one chain of several) above

Binder | Kd (Loqs dsRBD2 [1]) [nM] | Kd (Loqs dsRBD1 [2]) [nM] | Kd (Loqs-PDΔNC [3]) [nM] | Kd (Loqs-PD [4]) [nM] | other results
bantam miRNA/miRNA*, FITC (dsRNA, 5'-phosphate) RNA 1: UGAGAUCAUUUUGAAAGCUGAUU RNA 2: UCGGUUUUCGAUUUGGUUUGACU | 241 ± 75 | 233 ± 17 | 97 ± 21 | 118 ± 17 | –
35 nt dsRNA, FITC (dsRNA, 5'-phosphate) RNA 1: GAUUCAUACAAGUGAGAUCAUUUUGAAAGCUGAUU RNA 2: UCAGCUUUCAAAAUGAUCUCACUUGUAUGAAUCAA | 229 ± 48 | 191 ± 29 | 86 ± 18 | 62 ± 5 | –
ban-siRNA, unlabeled (dsRNA) RNA 1: UCAGCUUUCAAAAUGAUCUCACU RNA 2: UGAGAUCAUUUUGAAAGCUGAUU | – | – | – | – | binding result (Loqs dsRBD2 [5]): binds; binding result (Loqs dsRBD1 [6]): binds; binding result (Loqs-PDΔNC [7]): binds; binding result (Loqs-PDΔNC Δ41): binds
highly asymmetric siRNA, TEMPO (dsRNA, TEMPO at either 5' end) RNA 1: GUAACUUUCAAAAUGAGCGCCUU RNA 2: GGCGCUCAUUUUGAAAGUUACUU | – | – | – | – | binding result (Loqs-PDΔNC [8]): binds
ban-siRNA, 4-thioU series (dsRNA, one 4-thiouridine per duplex, position varied; 5'-phosphate) RNA 1: UCAGCUUUCAAAAUGAUCUCACU RNA 2: UGAGAUCAUUUUGAAAGCUGAUU | – | – | – | – | binding result (Loqs-PDΔNC [9]): binds; binding result (Loqs-PD [10]): binds; binding result (Dcr-2;Loqs-PD [11]): binds; binding result (Loqs dsRBD2 [12]): binds; binding result (Loqs dsRBD1 [13]): binds; binding result (Dcr-2): binds
ban-siRNA, FITC (dsRNA, 5'-phosphate) RNA 1: UGAGAUCAUUUUGAAAGCUGAUU RNA 2: UCAGCUUUCAAAAUGAUCUCACU | 278 ± 24 | 228 ± 27 | 82 ± 21 | 50 ± 6 | –
nicked siRNA, FITC (dsRNA, nick between 11 and 12 of S1 strand; 5'-phosphate) RNA 1: UGAGAUCAUUUUGAAAGCUGAUU RNA 2: UCAGCUUUCAA RNA 3: AAUGAUCUCACU | – | – | – | – | binding result (Loqs dsRBD2 [14]): binds; binding result (Loqs-PDΔNC [15]): binds
ban-siRNA GG variant, TEMPO (dsRNA, TEMPO at either 5' end (G1 or G24)) RNA 1: GGAGCUUUCAAAAUGAUCUCCUU RNA 2: GGAGAUCAUUUUGAAAGCUCCUU | – | – | – | – | binding result (Loqs-PDΔNC [16]): binds
14 nt RNA, FITC (dsRNA, 5'-phosphate) RNA 1: UGAGAUCAUUUUGA RNA 2: UCAAAAUGAUCUCAUU | 334 ± 8 | 365 ± 62 | 128 ± 41 | 118 ± 15 | –
ban-siRNA GG variant, isotope-labeled (dsRNA) RNA 1: GGAGCUUUCAAAAUGAUCUCCUU RNA 2: GGAGAUCAUUUUGAAAGCUCCUU | – | – | – | – | binding result (Loqs-PDΔNC [17]): binds
nicked siRNA, passenger nicked, 4-thioU (dsRNA, nick 11/12; 4-thiouridine in intact strand) RNA 1: UGAGAUCAUUUUGAAAGCUGAUU RNA 2: UCAGCUUUCAA RNA 3: AAUGAUCUCACU | – | – | – | – | binding result (Dcr-2;Loqs-PD [18]): binds
